In publication PMC7614608:

What was measured:
ALYREFN (human) = assay: filter binding; conditions: Filter binding: 150 mM KCl, 20 mM HEPES pH 7.9, 2 mM MgCl2, 5% glycerol, 0.5 mM TCEP, +/-1 mM ATPgS, 50 nM RNA, 20 C, 45 min; EJC assembly for TREX-EJC-RNA: …
UAP56 (human) = assay: filter binding; conditions: Filter binding: 150 mM KCl, 20 mM HEPES pH 7.9, 2 mM MgCl2, 5% glycerol, 0.5 mM TCEP, +/-1 mM ATPgS, 50 nM RNA, 20 C, 45 min; EJC assembly for TREX-EJC-RNA: …
[1] = target: ALYREF UBM (Homo sapiens) (UniProt Q86V81); conditions: cited from earlier work

Sequence of UAP56 (Q13838 2-428): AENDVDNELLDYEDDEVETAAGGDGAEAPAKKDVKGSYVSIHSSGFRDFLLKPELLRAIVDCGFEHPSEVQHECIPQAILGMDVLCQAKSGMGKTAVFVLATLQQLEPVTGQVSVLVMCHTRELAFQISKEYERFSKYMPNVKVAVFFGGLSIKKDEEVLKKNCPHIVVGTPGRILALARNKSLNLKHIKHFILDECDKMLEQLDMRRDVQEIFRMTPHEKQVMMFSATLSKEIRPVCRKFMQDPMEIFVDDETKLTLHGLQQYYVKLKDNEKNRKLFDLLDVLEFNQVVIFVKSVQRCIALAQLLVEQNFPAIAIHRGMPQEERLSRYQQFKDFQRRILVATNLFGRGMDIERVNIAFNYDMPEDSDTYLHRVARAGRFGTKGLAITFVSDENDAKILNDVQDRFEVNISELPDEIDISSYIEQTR

With 400-nt AdML RNA as the substance, how does the Kd (ALYREFN (human)) read?
The Kd was 600 nM.

What about the Kd (UAP56 (human)) of the same substance?
Its Kd is 900 nM.

With UAP56 (from UniProt Q13838) as the substance, how does the Kd [1] read?
The Kd was 2900 nM.
